This data set in a line: amyloid nucleation score (Sup35N fusion, yeast selection) (log enrichment); library NNK1; higher = more nucleation; inactive = no reads after selection. The essentials: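 Random libraries were run with three technical output replicates. In each, psi-negative yeast expressing Sup35N fused to peptides of 20 random codons were induced 24 hours with 100 μM copper sulfate and grown 7 days at 30°C on medium lacking adenine and uracil, and input and output plasmid inserts were Illumina-sequenced. The nucleation score is the DiMSum log enrichment of output over input reads, centred on the mode score of non-aggregating sequences, and sequences under 100 input reads were excluded.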

± gives the uncertainty stated by the source.

For the substance LDILDLVRTNVIRTKKPFEI, the amyloid nucleation score was -0.348 ± 0.83.

In turn, TSKERSLCSKDVT yielded an amyloid nucleation score of 0.393 ± 0.55.

Substance FRRLHRYRWDNECLGMQVGS gave an amyloid nucleation score of -1.48 ± 2.1.

LCTDCLSGTVSDCRMFSHNR came in with an amyloid nucleation score of -0.592 ± 0.75.

In turn, HCVTFACC showed an amyloid nucleation score of 0.523 ± 0.53.

VMRNYFRDPDRPRLKWIYLS registered an amyloid nucleation score of 7.095 ± 0.048.

In turn, TFGPTHLGLVKYVEIDYHVA gave an amyloid nucleation score of -0.725 ± 0.9.

In the case of RSIFSWSTR, the amyloid nucleation score is 0.641 ± 0.42.

NCLNAMVWSLLMLTDHLAPQ returned an amyloid nucleation score of -0.157 ± 0.72.

For the substance YIYNWRYN, the amyloid nucleation score came to 1.71 ± 0.54.

For TVWKSLLHNSAAAGV, the amyloid nucleation score was 0.109 ± 1.6.

QRVIAGPPNRAGKAYQALSR came in with an amyloid nucleation score of 0.107 ± 0.53.

As for GVLSICGML, the amyloid nucleation score is -0.401 ± 0.31.

For RLSSPVSI, the amyloid nucleation score amounted to 0.028 ± 0.68.

Take TIQMFAVSTCCFFRFTLHWN: the amyloid nucleation score is -0.598 ± 0.56.

SISAASCIHFRMDVVCKTDF had an amyloid nucleation score of -0.519 ± 0.41.

SWCPSQEWFMRYVFSTMCRT displayed an amyloid nucleation score of 0.302 ± 0.57.

Substance GSRRDRISLRSQRVCILEKG displayed an amyloid nucleation score of 1.95 ± 0.6.

Regarding EKQCVVDFL, the amyloid nucleation score was -1.26 ± 1.7.

The substance YRDFGGN gave an amyloid nucleation score of 0.076 ± 0.24.

Substance GNIFAYGT had an amyloid nucleation score of -0.611 ± 0.76.

Substance RLCIVLSRHMPYTDRMLVMP gave an amyloid nucleation score of 0.259 ± 0.26.

As to NFIQID, the amyloid nucleation score result was “inactive”.

For SSGQLSNKYC, the amyloid nucleation score was 0.786 ± 0.46.

Substance GLNCSGNGEVIWQP registered an amyloid nucleation score of -0.403 ± 1.4.

Take FMVLDQFIE: the amyloid nucleation score stood at 0.383 ± 0.95.

WYQLVVVEQGSTLYS registered an amyloid nucleation score of 0.341 ± 0.68.

KCRGCSMMRAS yielded an amyloid nucleation score of 1.84 ± 0.5.

With VVSFLLHPCDFRSWFCGCIW, the amyloid nucleation score is -0.226 ± 0.93.

FDGKLW displayed an amyloid nucleation score of -0.53 ± 0.61.

For KVWSLKLSFGSLNMPMGYV, the amyloid nucleation score worked out at 0.399 ± 0.26.

FDCVMLISHHCVILCCFSDM showed an amyloid nucleation score of 0.205 ± 1.1.

As to LAELWECDKSLKSPGAYWVL, the amyloid nucleation score is 1.49 ± 0.73.

As to SAVTDQLMV, the amyloid nucleation score was found to be 0.119 ± 0.45.

Consider SACFVARSVVCDWGCAGYMF, for which the amyloid nucleation score was found to be 2.67 ± 0.28.

Substance TSTARISQPDNRVGLNF gave an amyloid nucleation score of -0.032 ± 0.44.

YSSICGSKLLRSGGCRGVGH displayed an amyloid nucleation score of -0.083 ± 0.49.

In turn, TGLCDRLRSLEGAAAVR gave an amyloid nucleation score of 0.514 ± 0.49.

On to IKISYEIQAMAVLGM, for which the amyloid nucleation score result was “inactive”.

LNHSYMICLFLCNR: the amyloid nucleation score was 6.95 ± 0.073.

As for NEWVCLS, the amyloid nucleation score is -0.179 ± 0.36.

Substance TPFGSVMVGYWQPIPLRDLG yielded an amyloid nucleation score of 0.634 ± 0.54.

Substance RNCNTT returned an amyloid nucleation score of 0.034 ± 0.61.

For KVVKCS, the amyloid nucleation score was -0.97 ± 0.3.

IRYYVVSSVVDSNS: the amyloid nucleation score is -0.142 ± 0.31.

In turn, ILYCLNLVIHLCQRYSLILR came in with an amyloid nucleation score of 1.97 ± 0.56.

On to CPVCNTESTCRYPRVGKWDT, for which the amyloid nucleation score came to 3.01 ± 0.17.

Substance ILSICLSLVFRPSVMIEYLR came in with an amyloid nucleation score of 0.191 ± 0.26.

In the case of DSKLLSPDFRGRLIYRIFDD, the amyloid nucleation score was -0.101 ± 0.46.

In the case of RLIENFGPHYRSSPVFDVVV, the amyloid nucleation score turned out to be 1.33 ± 0.79.

Turning to LVLANTDSLTLWFLVTYLTC, the amyloid nucleation score was -0.42 ± 0.62.

The substance SYARTFMDLHNGSRH displayed an amyloid nucleation score of -0.013 ± 0.25.

With RDNKVPVR, the amyloid nucleation score is -0.537 ± 1.9.

In turn, RYSSVKLEMKSQVVIELTLI yielded an amyloid nucleation score of 1.09 ± 0.76.

Substance NKGALRLRFYGIFEVECVVE had an amyloid nucleation score of 1.09 ± 0.4.

In the case of VSGESDSYRVGFSEACLRKL, the amyloid nucleation score was -0.849 ± 0.65.

In turn, TVMANKY gave an amyloid nucleation score of -0.16 ± 0.32.

On to IPCDFDRISSSVFAKCNYSI, for which the amyloid nucleation score was -0.455 ± 0.24.

As to LIVLWNCSADPDGFMWCSKC, the amyloid nucleation score result was “inactive”.

SEMGINQKFLLGVQDTLHRY came in with an amyloid nucleation score of -1.45 ± 1.

In turn, FFNCFLLDNNYVSLYLWSKD returned an amyloid nucleation score of 6.832 ± 0.068.

The substance TLCSSGKGRCLVAVT registered an amyloid nucleation score of 0.115 ± 1.

Regarding VFYDNSARSVCNPNYGWTFS, the amyloid nucleation score is 0.181 ± 0.48.

ESFLASMLRIGMCLPKQVMW returned an amyloid nucleation score of -0.096 ± 0.66.

YFTNPRCRLDAHGGFANQWW: the amyloid nucleation score was -0.977 ± 1.4.

RYVETNSGAE: the amyloid nucleation score came out at 0.669 ± 0.43.

In the case of NWNFIRRSARVWSR, the amyloid nucleation score is -1.7 ± 1.2.

RFHCYWTPRTLSMASSTPWM: the amyloid nucleation score amounted to 0.47 ± 0.45.

In turn, HIQLIYVTIVLESRLSWWRI displayed an amyloid nucleation score of 0.934 ± 0.53.

With IFVSHYNVR, the amyloid nucleation score worked out at 0.734 ± 0.25.

Substance KSRAGMNKACTQLYPLV gave an amyloid nucleation score of -0.215 ± 0.34.

Take STFIVGMRYVPLSKGR: the amyloid nucleation score was -0.513 ± 1.

NQANQSQPCTDSFILRNGVV: the amyloid nucleation score entry was “inactive”.

GMRVLQIFGTGGGDSNTRGD gave an amyloid nucleation score of 0.84 ± 0.36.

In the case of PRHFVKVIEAPASLLIVYHG, the amyloid nucleation score is -1.02 ± 1.8.

With SLLFY, the amyloid nucleation score result is “inactive”.

For the substance LSCPRNYWRSSLLVFMDGSQ, the amyloid nucleation score is 0.319 ± 0.63.

As to VELSRASNLCQDNIREHMQV, the amyloid nucleation score is -0.32 ± 0.31.

Turning to SDEMVW, the amyloid nucleation score amounted to 2.65 ± 0.11.

For the substance HRVVSVRRCMKHPLSMERVA, the amyloid nucleation score was found to be 0.447 ± 0.51.

In turn, VRYFCTFLWWSTIRQAQYNI yielded an amyloid nucleation score of 0.218 ± 0.78.

As for INQKSMMSSSDWRRWYFSGR, the amyloid nucleation score entry is “inactive”.

SNREFLQSVVLW: the amyloid nucleation score came to 0.209 ± 0.48.

Turning to MGDFND, the amyloid nucleation score was -1.08 ± 1.4.

As to FHIRWE, the amyloid nucleation score result was “inactive”.

As to SLTTHSAGHPLYIHVFNVLV, the amyloid nucleation score was found to be 0.147 ± 0.35.

GRPNATIKNLVIFSEMFYSL: the amyloid nucleation score worked out at 4.68 ± 0.063.

AMEPKVWRDGLLPG displayed an amyloid nucleation score of -0.471 ± 0.47.

The substance SNPRTFNDPSKPRV had an amyloid nucleation score of 0.518 ± 0.35.

Consider VGCADEMVPMEFMCWLGIIF, for which the amyloid nucleation score was -0.909 ± 2.7.

For SRGRSNAALSLRKFVGGFCL, the amyloid nucleation score result was “inactive”.

TGYVIGWVSWTSWWEMGLYR yielded an amyloid nucleation score of -2.43 ± 2.4.

For the substance PYVGPLMNFYHSMGMWWMYN, the amyloid nucleation score result is “inactive”.

VYPWPVERSNFPTSALSYTK showed an amyloid nucleation score of -0.843 ± 0.6.

Substance FSQYVGDFYILMRVSFEFMK came in with an amyloid nucleation score of 0.033 ± 0.44.

Substance HSHRYNILQASWKA displayed an amyloid nucleation score of 0.17 ± 0.38.

Substance YKANCVETLSWSFGHNFFLR returned an amyloid nucleation score of -0.481 ± 0.49.

The substance FAGSSGRCTPGSGFQGSIVT had an amyloid nucleation score of -0.167 ± 0.33.

On to EAPGTKFCC, for which the amyloid nucleation score amounted to 2.94 ± 0.1.

With VFSMC, the amyloid nucleation score result was “inactive”.

For FLYPVHLVLHCSTSYMQTDS, the amyloid nucleation score stood at 0.241 ± 1.2.

ARVGFTLT returned an amyloid nucleation score of -0.265 ± 0.87.

Substance HLLNYIVGL gave an amyloid nucleation score of 0.294 ± 0.69.

Substance FNYFVLFSLSFSTVFSFNDT returned an amyloid nucleation score of 3.37 ± 0.081.

Consider GLQFSFVEFFSLYVESEDHY, for which the amyloid nucleation score amounted to 0.332 ± 0.35.

Regarding RLTLLRLVLV, the amyloid nucleation score amounted to 0.945 ± 0.51.

Substance RLRVVL came in with an amyloid nucleation score of -0.537 ± 0.64.

Take YHILGCKIVNVIDTALGPWL: the amyloid nucleation score was found to be 5.8 ± 0.06.

With TPLYDIWDVSVDLPLPCIFS, the amyloid nucleation score entry is “inactive”.

In turn, IKNKGRYVFETPGL gave an amyloid nucleation score of 0.13 ± 0.87.

Regarding MVTGTSHPLQYMLSGSSTKY, the amyloid nucleation score is -0.436 ± 0.45.

For the substance LYESYDMVEKQDRTWSKGSS, the amyloid nucleation score came out at 0.281 ± 0.65.

Substance MIAHLAPINRDAEYFINAIC gave an amyloid nucleation score of -0.236 ± 0.27.

In the case of LWMHAGSGRIKLETGCGAKC, the amyloid nucleation score result is “inactive”.

Substance LSEYVKEAVVDPRLTFARIA displayed an amyloid nucleation score of -0.764 ± 0.89.

With VDSFRGHIESFPSLRTFIVS, the amyloid nucleation score result is “inactive”.

Take SQPMSS: the amyloid nucleation score was found to be 0.591 ± 0.31.

In the case of LLKSKGGLPILRPCWLPFWQ, the amyloid nucleation score was 0.066 ± 0.75.

Turning to LLCSKCGFTDQFQS, the amyloid nucleation score was -1.09 ± 1.2.

In turn, TMGVTIYGCWCDLNTSLVFG came in with an amyloid nucleation score of -0.104 ± 0.24.

Consider PGKSLIIHMCFSMSKTTENG, for which the amyloid nucleation score was determined as 2.52 ± 0.08.

Regarding RICGGTSFDSRNGLKLGRKG, the amyloid nucleation score turned out to be 0.034 ± 0.64.

IRGFSSSISLWWVDGTVANV: the amyloid nucleation score is -0.422 ± 0.49.

Substance LGESREVSGHDNRCWAFQ came in with an amyloid nucleation score of 0.594 ± 0.49.

In the case of LYLMGVRVMGNSICTLVRRL, the amyloid nucleation score result was “inactive”.

For the substance STGLACSSWQAFIYLCLLYY, the amyloid nucleation score is -0.516 ± 1.1.

NHFFCGLGNYLSAVFIVIRK had an amyloid nucleation score of -0.159 ± 1.4.

In turn, LSYMGGIPGVLHVMPDAFTV had an amyloid nucleation score of -0.077 ± 0.7.

As for FSRSWGDCIGERCGVV, the amyloid nucleation score amounted to 0.307 ± 0.38.

Turning to RNVRGSSKT, the amyloid nucleation score was found to be 1.37 ± 0.48.

Consider VIAKRPSMWGSKRNFRLVRV, for which the amyloid nucleation score was 0.512 ± 0.88.

In the case of EMTPLLCATVRKPWKRVMIN, the amyloid nucleation score is -0.311 ± 0.73.

Regarding FLTTLGWSYHRQNQLRMPRF, the amyloid nucleation score came out at 2.24 ± 0.16.

The substance WCSTQLVRKIKVFEKSERGV registered an amyloid nucleation score of -1.07 ± 2.1.

Substance RKSVFNTLLFVE came in with an amyloid nucleation score of 0.569 ± 0.33.

Substance LYCTLLKDSVSSLAVTYMSY showed an amyloid nucleation score of -0.071 ± 0.28.

For the substance SSFQGPSYSSCIRQHRNTRI, the amyloid nucleation score is -0.614 ± 0.67.

The substance CIWSSNLFSRSSTSDWRLDT showed an amyloid nucleation score of -0.109 ± 0.29.

As to TNMMYVYFKVI, the amyloid nucleation score entry is “inactive”.

For KVSVRYSNYSCVYFVYCRW, the amyloid nucleation score was found to be 0.279 ± 0.27.

These data come from the supplement of paper PMC12042874.
